How the values were obtained:
[1] = biological target: T1, human antithrombin β complexed with heparin (human ATβH) (human, UniProt P01008 33-464, lacks glycosylation at Asn135 (β glyco-isoform); complexed with heparin); assay: panning and screening of human antibody libraries against human ATβ in complex with heparin
T1 construct: mature; Heparin is a non-protein cofactor; also called hATβH; hATβ

[2] = biological target: T1, human antithrombin β complexed with …; assay: cell-based or functional assay
[3] = biological target: cynomolgus antithrombin (ATβH species homolog, in Cyno plasma) (Cyno); assay: cell-based or functional assay
[4] = biological target: rabbit antithrombin β complexed with heparin (rATβH) (rabbit); assay: cell-based or functional assay

T1 sequence (P01008 33-464, one chain of several): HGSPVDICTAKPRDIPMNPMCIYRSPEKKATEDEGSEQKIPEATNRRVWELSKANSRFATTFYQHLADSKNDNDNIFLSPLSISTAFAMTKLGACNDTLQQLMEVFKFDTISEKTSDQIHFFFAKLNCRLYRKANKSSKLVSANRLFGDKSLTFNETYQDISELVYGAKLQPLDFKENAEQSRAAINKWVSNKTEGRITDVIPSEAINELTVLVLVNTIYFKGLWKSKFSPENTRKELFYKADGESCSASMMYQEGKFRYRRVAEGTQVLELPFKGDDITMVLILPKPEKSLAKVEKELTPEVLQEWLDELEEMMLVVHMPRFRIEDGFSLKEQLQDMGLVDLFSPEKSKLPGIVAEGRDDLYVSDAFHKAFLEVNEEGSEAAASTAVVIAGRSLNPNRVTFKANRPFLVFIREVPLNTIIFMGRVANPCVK

Row | Binder | binding result [1] | EC50, FXa-Activated Clotting Assay, human HEM A plasma [2] | EC50, FXa-Activated Clotting Assay, human normal plasma [2] | also measured
1 | TPP2009 hIgG1 (antibody, V domains shown) VH: EVQLLESGGGLVQPGGSLRLSCAASGFTFSAYRMGWVRQAPGKGLEWVSRIYSSGGRTRYADSVKGRFTISRDNSKNTLYLQMNSLRAEDTAVYYCAREKASDLSGSFSEALDYWGQGTLVTVSS VL: AQSVLTQDPAVSVALGQTVRITCQGDSLRSYYASWYQQKPGQAPVLVIYGKNNRPSGIPDRFSGSSSGNTASLTITGAQAEDEADYYCNSRDSSGNHLVFGGGTKLTVLG | – | 4.7 nM | 10.5 nM | EC50, dPT (diluted prothrombin time), human HEM A plasma [2]: 9 nM; EC50, FXa-Activated Clotting Assay, cyno HEM A plasma [3]: 4.3 nM; EC50, FXa-Activated Clotting Assay, cyno normal plasma [3]: 21.5 nM; EC50, dPT (diluted prothrombin time), cyno HEM A plasma [3]: 13.9 nM; EC50, FXa-Activated Clotting Assay, rabbit HEM A plasma [4]: 10.5 nM; EC50, FXa-Activated Clotting Assay, rabbit normal plasma [4]: 25.7 nM
2 | TPP2803 IgG2, Germlined and converted to IgG2 (antibody, V domains shown) VH: EVQLLESGGGLVQPGGSLRLSCAASGFTFSSYRMSWVRQAPGKGLEWVSRIYSSGGRTRYADSVKGRFTISRDNSKNTLYLQMNSLRAEDTAVYYCAREKASDLSGSFSEALDYWGQGTLVTVSS VL: SSELTQDPAVSVALGQTVRITCQGDSLRSYYASWYQQKPGQAPVLVIYGKNNRPSGIPDRFSGSSSGNTASLTITGAQAEDEADYYCNSRDSSGNHLVFGGGTKLTVLG | – | 2.7 nM | 2.4 nM | –

Second part, led by results:

Row | binding result [1] | EC50, FXa-Activated Clotting Assay, human HEM A plasma [2] | EC50, FXa-Activated Clotting Assay, human normal plasma [2] | Binder | also measured
3 | binds | – | – | TPP-2019 hIgG (antibody, V domains shown) VH: EVQLLESGGGLVQPGGSLRLSCAASGFTFSRYAMYWVRQAPGKGLEWVSRISPSGGKTHYADSVKGRFTISRDNSKNTLYLQMNSLRAEDTAVYYCARLSQTGYYPHYHYYGMDVWGQGTTVTVSS VL: DIQMTQSPATLSLSPGERATLSCRASQRVSSSYLTWYQQKPGQAPRLLIYGASSRATGIPDRFSGSGSGTDFTLTISRLEPEDFAVYYCQQYDSTPPLTFGGGTKVEIKR | –
4 | binds | – | – | TPP-2016 hIgG (antibody, V domains shown) VH: EVQLLESGGGLVQPGGSLRLSCAASGFTFSKYRMDWVRQAPGKGLEWVSRIGPSGGKTTYADSVKGRFTISRDNSKNTLYLQMNSLRAEDTAVYYCAREKTSDLSGSYSEALDYWGQGTLVTVSS VL: DIQMTQSPATLSVSPGERATLSCRASQNINRNLAWYQQKPGRAPRLLIHTASTRAPGVPVRITGSGSGTEFTLTISSLEPEDFAVYFCQQYASPPRTFGQGTKVEIKR | –
